{"source": "IntAct's records for PubMed 31515488", "parents": {"B1": {"name": "Protein FAM200C (Homo sapiens), Q8IZ13 (parent)", "chain": "MSKKRKWDDDYVRYWFTCTTEVDGTQRPQCVLCNSVFSNADLRPSKLSDHFNRQHGGVAGHDLNSLKHMPAPSDQSETLKAFGVASHEDTLLQASYQFAYLCAKEKNPHTVAEKLVKPCALEIAQIVLGPDAQKKLQQVPLSDDVIHSRIDEMSQDILQQVLEDIKASPLKVGIQLAETTDMDDCSQLMAFVRYIKEREIVEEFLFCEPLQLSMKGIDVFNLFRDFFLKHKIALDVCGSVCTDGASSMLGENSEFVAYVKKEIPHIVVTHCLLNPHALVIKTLPTKLRDALFTVVRVINFIKGRAPNHRLFQAFFEEIGIEYSVLLFHTEMRWLSRGQILTHIFEMYEEINQFLHHKSSNLVDGFENKEFKIHLAYLADLFKHLNELSASMQRTGMNTVSAREKLSAFVRKFPFWQKRIEKRNFTNFPFLEEIIVSDNEGIFIAAEITLHLQQLSNFFHGYFSIGDLNEASKWILDPFLFNIDFVDDSYLMKNDLAELRASGQILMEFETMKLEDFWCAQFTAFPNLAKTALEILMPFATTYLCELGFSSLLHFKTKSRSCFNLSDDIRVAISKKVPRFSDIIEQKLQLQQKSL", "partner": "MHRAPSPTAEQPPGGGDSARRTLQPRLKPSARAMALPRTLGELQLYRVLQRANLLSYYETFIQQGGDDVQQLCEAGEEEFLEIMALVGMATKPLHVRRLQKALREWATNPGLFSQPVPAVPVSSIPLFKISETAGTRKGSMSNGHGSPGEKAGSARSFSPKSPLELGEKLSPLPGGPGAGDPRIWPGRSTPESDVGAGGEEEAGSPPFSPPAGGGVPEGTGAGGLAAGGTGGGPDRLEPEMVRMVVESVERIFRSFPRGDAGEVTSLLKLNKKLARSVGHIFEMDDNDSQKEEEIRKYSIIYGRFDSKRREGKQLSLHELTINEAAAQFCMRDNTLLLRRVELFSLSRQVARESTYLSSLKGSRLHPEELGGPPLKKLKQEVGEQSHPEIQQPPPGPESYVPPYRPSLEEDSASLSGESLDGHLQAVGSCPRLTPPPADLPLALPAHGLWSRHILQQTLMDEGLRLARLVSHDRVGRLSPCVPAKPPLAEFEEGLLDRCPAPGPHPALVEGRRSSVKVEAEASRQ"}, "B2": {"name": "Consortin (Homo sapiens), Q6PJW8 (parent)", "chain": "MDDSDTPTYYLQIEPQDGCHPGDSVERSVTCLPSASDENENQLDGDGHEHLTSSDSAMGKPQVSEQDSLNNNESCTLSCEVAAGENLQNTLCEASRDEQAFLGKDKKIPGKRSPRSKKGTAKKIPPGLFSGDIAPLMQEKVLSAVTYAVDDEEAAEVNANEQPEAPKLVLQSLFSLIRGEVEQLDSRALPLCLHQIAESYFQEEDYEKAMKFIQLERLYHEQLLANLSAIQEQWETKWKTVQPHTVTALRNSEKGFNGEDFERLTKICATHQDPLLSKHKIAAVEKSQERKCSTQLLVSEDPKEGGATTKESESKTCLGTESSKESQHTVEPLGSSPCCHQMDVQTDSPSLSVTAGKDHMEELLCSAEATLALHTQSSETAGSPSGPDSSEDACEDDSRLQLAQTEACQDVARIEGIAEDPKVFLSSKSKTEPLISPGCDRIPPALISEGKYSQAQRKELRLPLRDASEALPTDQLENNELNELQQPDLTDSDGKSPQAQADSDGSENVLCGNNQISDLGILLPEVCMAPEEKGDKDDQLNKETEDYLNSLLEGCLKDTEDSLSYEDNQDDDSDLLQDLSPEEASYSLQENLPSDESCLSLDDLAKRIEIAEVVPTEGLVSILKKRNDTVGDHPAQMQHKPSKRRVRFQEIDDSLDQDEVGGGSCILLVLLCIATVFLSVGGTALYCTFGDMESPVCTDFADNMDFYYTKLLQGVAELKHWIYLS"}, "B3": {"name": "Protein LRATD2 (Homo sapiens), Q96KN1 (parent)", "chain": "MGNQVEKLTHLSYKEVPTADPTGVDRDDGPRIGVSYIFSNDDEDVEPQPPPQGPDGGGLPDGGDGPPPPQPQPYDPRLHEVECSVFYRDECIYQKSFAPGSAALSTYTPENLLNKCKPGDLVEFVSQAQYPHWAVYVGNFQVVHLHRLEVINSFLTDASQGRRGRVVNDLYRYKPLSSSAVVRNALAHVGAKERELSWRNSESFAAWCRYGKREFKIGGELRIGKQPYRLQIQLSAQRSHTLEFQSLEDLIMEKRRNDQIGRAAVLQELATHLHPAEPEEGDSNVARTTPPPGRPPAPSSEEEDGEAVAH", "partner": "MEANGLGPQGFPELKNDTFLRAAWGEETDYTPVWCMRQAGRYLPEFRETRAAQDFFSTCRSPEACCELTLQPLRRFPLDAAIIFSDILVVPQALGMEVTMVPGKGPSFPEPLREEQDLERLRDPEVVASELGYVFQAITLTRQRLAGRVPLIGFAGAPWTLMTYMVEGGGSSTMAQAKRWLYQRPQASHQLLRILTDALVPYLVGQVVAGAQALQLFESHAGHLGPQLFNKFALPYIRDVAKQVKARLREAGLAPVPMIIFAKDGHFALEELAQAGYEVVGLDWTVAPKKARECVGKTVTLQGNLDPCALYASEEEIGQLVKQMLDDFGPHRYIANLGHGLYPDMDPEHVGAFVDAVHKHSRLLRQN"}, "B4": {"name": "Coiled-coil domain-containing protein 185 (Homo sapiens), Q8N715 (parent)", "chain": "MAGFSHFSQPPYRDLWEPPRPGGERESTQRLGGQRSGADSTACSRAGTPGAESEAGACWLHPHCSFTPRPRRRGCSDSLRGSRSLSDVARRPLERSRKHRPRSRRLEDAWGETGTKPRPAWQPQTQLPPQRPQPCPHYPLAQGDSPPPCPGGAGTPLSGTFRVEKAQGGDQWAVPLGRHLGRWSPSSVPSERSSVPSQKFKRHSACVCAQKRDSSDQVESLASRDSQPLASSKEMRSPHTQVLKSKLEEVVVSSQDQQIVALVLTRLKKAQRIRELQQQAAKAWEELKRSDQKVQMTLERERRLLLRQSQEQWQEKEQRKTLQSPEQRGLRRDSQRKNVPPGESRWKEQPEDQESPRQEKLEKARAQAEHRKQCQVRRLREQEKMLRNLREQHSLQLQRRLVEACRKRHLHAVEGQKKVQDTNLSSLINYQARKVLMDCQAKAEELLRQLSLEQSFQRSQEIHQGLRKERQRELREKAQKEEEQLQQARWRAGESEEQRKMRKRILVELADEKIRQARSHVHKTTRDKVQHLRELNHLREKNHHILKLKAEKEEKCHIEGIKEAIKKKEQRVQHISQGKDPNFQEFQKLPQASRREERAPPNSSLDQMVLEAQLRACQQNRGY", "partner": "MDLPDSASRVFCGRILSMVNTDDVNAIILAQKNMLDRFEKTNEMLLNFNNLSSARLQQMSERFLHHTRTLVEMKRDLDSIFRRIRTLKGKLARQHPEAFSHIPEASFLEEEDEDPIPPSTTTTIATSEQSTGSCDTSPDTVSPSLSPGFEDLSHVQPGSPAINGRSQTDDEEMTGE"}}}
{"variants_of": "B1", "conditions": "with nab2_human NAB2, Q15742"}
{"variant": "M248K", "effect of a mutation on the interaction": "with no effect"}
{"variants_of": "B2", "conditions": "with rop1a_human ROPN1, Q9HAT0"}
{"variant": "Q183R", "effect of a mutation on the interaction": "with no effect"}
{"variant": "R399C", "effect of a mutation on the interaction": "with no effect"}
{"variants_of": "B3", "conditions": "with dcup_human UROD"}
{"variant": "P71T", "effect of a mutation on the interaction": "with no effect"}
{"variants_of": "B4", "conditions": "with kxdl1_human KXD1, Q9BQD3"}
{"variant": "S603G", "effect of a mutation on the interaction": "with no effect"}
